What was measured:
[1] = target: PIΔC SVMP metalloproteinase (MP) domain (Echis ocellatus); test: SEC
[2] = target: PII SVMP zymogen (Venom metalloprotease PII-SVMP EOC00006, Echis ocellatus) (Echis ocellatus); test: SEC + other: non-reducing SDS-PAGE
[3] = target: integrin αIIbβ3 (human (endogenous in platelets)) (UniProt P08514)
Sequence of UniProt P08514 (P08514 32-1039, chain 1 of 2): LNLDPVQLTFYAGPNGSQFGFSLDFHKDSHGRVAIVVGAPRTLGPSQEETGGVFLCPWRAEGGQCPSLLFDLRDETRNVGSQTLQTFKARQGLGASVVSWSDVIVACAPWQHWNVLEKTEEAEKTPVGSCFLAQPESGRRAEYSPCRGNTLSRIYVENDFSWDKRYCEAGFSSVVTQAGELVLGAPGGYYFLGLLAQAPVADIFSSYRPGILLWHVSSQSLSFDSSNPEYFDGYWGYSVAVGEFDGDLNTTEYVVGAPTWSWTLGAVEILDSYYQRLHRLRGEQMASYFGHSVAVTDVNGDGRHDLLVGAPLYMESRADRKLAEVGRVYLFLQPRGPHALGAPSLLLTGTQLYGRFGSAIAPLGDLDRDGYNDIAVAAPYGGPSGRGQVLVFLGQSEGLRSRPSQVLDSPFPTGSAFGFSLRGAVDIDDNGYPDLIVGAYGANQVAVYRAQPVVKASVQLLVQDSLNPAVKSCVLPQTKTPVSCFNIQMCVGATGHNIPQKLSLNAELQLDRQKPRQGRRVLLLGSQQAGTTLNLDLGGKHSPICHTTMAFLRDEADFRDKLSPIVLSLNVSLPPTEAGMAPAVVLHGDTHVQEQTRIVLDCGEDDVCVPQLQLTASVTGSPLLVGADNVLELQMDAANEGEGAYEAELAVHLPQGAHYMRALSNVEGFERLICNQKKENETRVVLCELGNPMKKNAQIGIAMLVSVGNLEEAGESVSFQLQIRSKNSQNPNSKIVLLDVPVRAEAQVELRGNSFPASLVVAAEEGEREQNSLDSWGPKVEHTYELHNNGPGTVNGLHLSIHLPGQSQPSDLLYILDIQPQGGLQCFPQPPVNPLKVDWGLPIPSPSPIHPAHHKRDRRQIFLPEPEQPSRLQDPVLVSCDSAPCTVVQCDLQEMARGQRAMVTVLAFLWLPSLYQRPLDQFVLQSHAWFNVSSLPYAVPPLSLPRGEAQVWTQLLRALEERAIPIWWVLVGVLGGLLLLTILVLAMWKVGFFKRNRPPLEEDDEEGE
Sequence of UniProt P08514 (P05106 27-788, chain 2 of 2, further chain): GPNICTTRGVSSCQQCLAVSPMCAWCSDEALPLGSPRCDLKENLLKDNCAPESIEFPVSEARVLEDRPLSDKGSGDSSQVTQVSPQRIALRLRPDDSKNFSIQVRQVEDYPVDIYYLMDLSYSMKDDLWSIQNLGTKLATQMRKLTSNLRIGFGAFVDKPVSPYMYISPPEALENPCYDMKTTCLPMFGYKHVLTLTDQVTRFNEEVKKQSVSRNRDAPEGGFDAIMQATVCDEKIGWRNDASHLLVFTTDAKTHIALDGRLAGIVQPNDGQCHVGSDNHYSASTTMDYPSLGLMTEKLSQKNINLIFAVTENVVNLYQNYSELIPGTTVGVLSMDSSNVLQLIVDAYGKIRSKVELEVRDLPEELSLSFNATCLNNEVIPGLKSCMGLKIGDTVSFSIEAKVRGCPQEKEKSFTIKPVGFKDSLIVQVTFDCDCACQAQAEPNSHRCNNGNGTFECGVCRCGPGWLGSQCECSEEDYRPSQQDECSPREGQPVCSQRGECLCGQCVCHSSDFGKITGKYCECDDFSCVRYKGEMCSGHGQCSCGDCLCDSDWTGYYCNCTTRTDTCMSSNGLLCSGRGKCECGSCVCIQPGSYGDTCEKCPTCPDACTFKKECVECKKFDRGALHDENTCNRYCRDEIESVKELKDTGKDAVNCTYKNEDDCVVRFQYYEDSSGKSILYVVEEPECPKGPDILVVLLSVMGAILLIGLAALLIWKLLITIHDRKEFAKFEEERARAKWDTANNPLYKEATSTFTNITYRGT

**Q.** With PI SVMP prodomain (domain or fragment) as the substance, how does the stoichiometry N [1] read?
**A.** 1

**Q.** How did the stoichiometry N [2] turn out when “PII SVMP zymogen (Venom metalloprotease PII-SVMP EOC00006, Echis ocellatus) (from UniProt A0A3G1E3U2 1-494) (enzyme)” was run?
**A.** 2

**Q.** With activated PII SVMP (enzyme) as the substance, how does the 2-MeS-ADP-induced platelet aggregation in human platelet-rich plasma (plate aggregometry), % aggregation at 500 nM SVMP (% aggregation) [3] read?
**A.** 12
